Measurements published in PMC2120374 (The Journal of Cell Biology, 1995).

Target: T1, Mas70p (S. cerevisiae (endogenous in yeast …, UniProt P07213 1-617))
T1 sequence (looked up): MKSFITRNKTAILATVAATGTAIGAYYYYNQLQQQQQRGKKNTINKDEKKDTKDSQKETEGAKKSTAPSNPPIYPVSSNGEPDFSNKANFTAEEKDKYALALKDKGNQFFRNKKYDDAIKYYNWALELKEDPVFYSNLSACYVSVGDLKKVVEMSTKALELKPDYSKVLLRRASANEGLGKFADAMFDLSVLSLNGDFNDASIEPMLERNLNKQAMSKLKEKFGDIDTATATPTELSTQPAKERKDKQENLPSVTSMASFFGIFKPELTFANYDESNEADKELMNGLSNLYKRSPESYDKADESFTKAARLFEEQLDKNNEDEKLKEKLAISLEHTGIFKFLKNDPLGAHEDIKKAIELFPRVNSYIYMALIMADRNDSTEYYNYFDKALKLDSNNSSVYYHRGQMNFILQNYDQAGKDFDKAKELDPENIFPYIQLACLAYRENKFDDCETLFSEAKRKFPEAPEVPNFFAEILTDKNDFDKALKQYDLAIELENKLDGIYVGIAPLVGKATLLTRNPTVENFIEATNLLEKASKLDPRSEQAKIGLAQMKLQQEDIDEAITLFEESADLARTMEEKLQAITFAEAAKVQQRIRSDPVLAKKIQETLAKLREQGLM
Test: co-IP

stoichiometry N: 1 mol Mas37p per mol Mas70p
B1: Mas37p (natural protein)
chain: MVKGSVHLWGKDGKASLISVDSIALVWFIKLCTSEEAKSMVAGLQIVFSNNTDLSSDGKLPVLILDNGTKVSGYVNIVQFLHKNICTSKYEKGTDYEEDLAIVRKKDRLLEYSLLNYVDVEISRLTDYQLFLNTKNYNEYTKKLFSKLLYFPMWYNTPLQLRSQARENCEEIIGSLTLEDDEEFVESKAMESASQLAQSKTFKIAHKNKIKGKQELQQVKYNLQFDNRLQSCVSNWLAARKKLDDSVILSSDLLFLANLYVQLGLPDGNRIRSKLEQTFGSELLNSMSNKIDDFVHRPSNNLEQRDPQFREQGNVVMSLYNLACKYI
